Data on 20 substances can be found in patent publication US20090099065A1, “Acylated Single Chain Insulin” (Novo Nordisk A/S, priority 2006, published 2009).

Assay [1] has as its target purified recombinant human insulin receptor-exon 11 (human) (UniProt P06213). Description: assay (I): SPA, displacement of A14 Tyr[125I]-human insulin from recombinant human insulin receptor.
Assay [2] addresses human insulin receptor (Homo sapiens, UniProt P06213). Briefly: Assay (I): insulin receptor binding, SPA microtiterplate antibody capture assay. Conditions: purified recombinant human insulin receptor - exon 11; A14 Tyr[125I]-human insulin tracer; human insulin = 100%. The method, then:
Insulin Receptor Binding of the Acylated, Single-Chain Insulin
The affinity of the acylated, single-chain insulins for the human insulin receptor can be determined by a SPA assay (Scintillation Proximity Assay) microtiterplate antibody capture assay. SPA-PVT antibody-binding beads, anti-mouse reagent (Amersham Biosciences, Cat No. PRNQ0017) are mixed with 25 ml of binding buffer (100 mM HEPES pH 7.8; 100 mM sodium chloride, 10 mM MgSO4, 0.025% Tween-20). Reagent mix for a single Packard Optiplate (Packard No. 6005190) is composed of 2.4 μl of a 1:5000 diluted purified recombinant human insulin receptor—exon 11, an amount of a stock solution of A14 Tyr[125I]-human insulin corresponding to 5000 cpm per 100 μl of reagent mix, 12 μl of a 1:1000 dilution of F12 antibody, 3 ml of SPA-beads and binding buffer to a total of 12 ml. A total of 100 μl is then added and a dilution series is made from appropriate samples. To the dilution series is then added 100 μl of reagent mix and the samples are incubated for 16 hours while gently shaken. The phases are then separated by centrifugation for 1 min and the plates counted in a Topcounter. The binding data are fitted using the nonlinear regression algorithm in the GraphPad Prism 2.01 (GraphPad Software, San Diego, Calif.).

Chain of human insulin receptor (P06213 28-746 isoform P06213-2 limits assumed): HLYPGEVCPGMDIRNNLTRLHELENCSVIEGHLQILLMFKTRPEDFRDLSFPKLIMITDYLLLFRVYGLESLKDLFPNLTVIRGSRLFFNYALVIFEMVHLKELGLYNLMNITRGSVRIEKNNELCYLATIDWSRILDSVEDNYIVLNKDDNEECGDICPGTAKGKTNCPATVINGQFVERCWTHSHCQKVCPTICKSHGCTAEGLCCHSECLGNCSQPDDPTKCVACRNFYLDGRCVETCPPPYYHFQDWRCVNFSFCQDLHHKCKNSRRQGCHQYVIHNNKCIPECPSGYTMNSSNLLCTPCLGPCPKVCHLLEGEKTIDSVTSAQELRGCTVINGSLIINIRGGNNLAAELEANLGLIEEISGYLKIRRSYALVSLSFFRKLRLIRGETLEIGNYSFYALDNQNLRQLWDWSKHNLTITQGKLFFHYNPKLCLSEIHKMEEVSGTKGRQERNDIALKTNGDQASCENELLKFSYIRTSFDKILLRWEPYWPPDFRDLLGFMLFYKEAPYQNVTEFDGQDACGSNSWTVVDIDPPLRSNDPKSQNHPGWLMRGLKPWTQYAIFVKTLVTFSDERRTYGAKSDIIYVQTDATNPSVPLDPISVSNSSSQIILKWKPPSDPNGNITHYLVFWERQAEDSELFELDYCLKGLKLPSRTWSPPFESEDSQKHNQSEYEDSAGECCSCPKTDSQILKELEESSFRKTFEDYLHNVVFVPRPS
Chain of human insulin receptor (P06213 763-1382 partner limits assumed): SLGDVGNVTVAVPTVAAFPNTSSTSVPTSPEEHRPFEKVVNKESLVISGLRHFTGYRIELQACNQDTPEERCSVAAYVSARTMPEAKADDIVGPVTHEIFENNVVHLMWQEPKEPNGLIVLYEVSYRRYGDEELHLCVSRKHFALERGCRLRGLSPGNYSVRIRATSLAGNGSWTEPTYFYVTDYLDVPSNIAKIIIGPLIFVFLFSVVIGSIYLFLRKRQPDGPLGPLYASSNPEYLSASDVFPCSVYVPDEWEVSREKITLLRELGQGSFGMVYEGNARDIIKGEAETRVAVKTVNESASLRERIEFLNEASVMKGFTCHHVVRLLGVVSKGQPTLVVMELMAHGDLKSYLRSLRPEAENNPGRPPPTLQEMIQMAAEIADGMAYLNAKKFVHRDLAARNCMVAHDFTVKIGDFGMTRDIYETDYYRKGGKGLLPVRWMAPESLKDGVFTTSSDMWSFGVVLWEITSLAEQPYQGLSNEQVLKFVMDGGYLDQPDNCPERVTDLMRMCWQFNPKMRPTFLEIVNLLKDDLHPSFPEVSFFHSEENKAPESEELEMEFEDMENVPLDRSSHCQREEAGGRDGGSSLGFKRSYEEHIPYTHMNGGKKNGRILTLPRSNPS
Chain of purified recombinant human insulin receptor-exon 11 (human) (P06213 other isoform, or with tags, fused parts or gaps limits assumed, form in doubt): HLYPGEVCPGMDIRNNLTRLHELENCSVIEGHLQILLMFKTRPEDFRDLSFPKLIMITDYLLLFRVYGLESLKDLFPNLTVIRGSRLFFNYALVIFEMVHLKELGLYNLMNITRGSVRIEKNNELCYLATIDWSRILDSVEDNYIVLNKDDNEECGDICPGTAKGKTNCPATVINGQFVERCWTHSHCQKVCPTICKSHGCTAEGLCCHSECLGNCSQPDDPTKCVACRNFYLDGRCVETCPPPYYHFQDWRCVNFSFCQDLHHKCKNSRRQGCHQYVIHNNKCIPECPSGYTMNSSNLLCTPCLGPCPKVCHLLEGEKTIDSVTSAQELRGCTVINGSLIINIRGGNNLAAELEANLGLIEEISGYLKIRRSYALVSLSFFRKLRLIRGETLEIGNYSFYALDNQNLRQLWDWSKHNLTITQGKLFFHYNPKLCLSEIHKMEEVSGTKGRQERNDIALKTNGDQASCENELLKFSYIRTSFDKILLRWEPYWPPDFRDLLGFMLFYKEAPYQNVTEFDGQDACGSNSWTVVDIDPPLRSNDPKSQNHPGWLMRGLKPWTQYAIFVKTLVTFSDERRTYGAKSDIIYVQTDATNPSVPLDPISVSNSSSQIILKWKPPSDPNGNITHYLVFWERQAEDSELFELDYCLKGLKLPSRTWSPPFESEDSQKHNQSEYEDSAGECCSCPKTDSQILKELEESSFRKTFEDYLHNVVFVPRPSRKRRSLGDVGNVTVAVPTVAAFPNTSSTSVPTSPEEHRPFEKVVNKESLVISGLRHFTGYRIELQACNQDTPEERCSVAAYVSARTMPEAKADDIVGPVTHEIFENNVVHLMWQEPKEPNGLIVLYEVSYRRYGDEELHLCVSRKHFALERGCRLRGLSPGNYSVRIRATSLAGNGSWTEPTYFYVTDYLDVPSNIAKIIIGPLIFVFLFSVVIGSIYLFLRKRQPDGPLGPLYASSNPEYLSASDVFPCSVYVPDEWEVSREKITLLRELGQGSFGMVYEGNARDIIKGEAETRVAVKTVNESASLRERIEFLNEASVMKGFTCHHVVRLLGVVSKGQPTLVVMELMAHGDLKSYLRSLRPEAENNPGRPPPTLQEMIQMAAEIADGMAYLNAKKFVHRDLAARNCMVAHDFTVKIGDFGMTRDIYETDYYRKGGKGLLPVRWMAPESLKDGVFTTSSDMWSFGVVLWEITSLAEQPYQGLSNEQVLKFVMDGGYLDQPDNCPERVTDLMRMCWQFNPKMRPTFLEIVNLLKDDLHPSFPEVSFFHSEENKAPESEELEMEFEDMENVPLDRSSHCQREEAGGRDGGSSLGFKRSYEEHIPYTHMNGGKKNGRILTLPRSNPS

For “B(1-29)-B29A-VGLSSGQ-A(1-21)-A8K(N(eps)hexadecandioyl-gGlu)-A18Q Human Insulin (from UniProt P01308 25-53; P01308 90-110) (ligand)”, the insulin receptor binding relative to that of human insulin in assay [1] came to 73%.
“B(1-29)-B29A-VGLSSGQ-A(1-21)-A8K(N(eps)hexadecandioyl-gGlu)-A18Q Human Insulin [Example 6]”: in assay [2], the “insulin receptor binding relative to that of human insulin” value amounted to 73%.
Turning to “B(1-29)-B29A-VGLSSGQ-A(1-21)-A15K(N(eps)-hexadecandioyl-g-L-Glu)-A18Q Human Insulin (from UniProt P01308 25-53; P01308 90-110) (ligand)”, the insulin receptor binding relative to that of human insulin in assay [1] worked out at 17.4%.
As to “B(1-29)-B29A-VGLSSGQ-A(1-21)-A15K(N(eps)-hexadecandioyl-g-L-Glu)-A18Q Human Insulin [Example 9]”, in assay [2], the “insulin receptor binding relative to that of human insulin” value is listed as 17.4%.
As for “B(1-29)-B29A-VGLSSGQ-A(1-21)-A18K(N(eps)hexadecandioyl-gGlu) Human Insulin (from UniProt P01308 25-53; P01308 90-110) (ligand)”, in assay [1], the insulin receptor binding relative to that of human insulin was 25%.
As to “B(1-29)-B29A-VGLSSGQ-A(1-21)-A18K(N(eps)hexadecandioyl-gGlu) Human Insulin [Example 1]”, the “insulin receptor binding relative to that of human insulin” value in assay [2] was found to be 25%.
As for “B(1-29)-B29A-VGLSSGQ-A(1-21)-A18K(N(eps)myristoyl) Human Insulin (from UniProt P01308 25-53; P01308 90-110) (ligand)”, in assay [1], the insulin receptor binding relative to that of human insulin came out at 27%.
“B(1-29)-B29A-VGLSSGQ-A(1-21)-A18K(N(eps)myristoyl) Human Insulin [Example 3]”: the “insulin receptor binding relative to that of human insulin” value in assay [2] is 27%.
As for “B(1-29)-B29A-VGLSSGQ-A(1-22)-A18Q, A22K(N(eps)hexadecandioyl-gGlu) Human Insulin (from UniProt P01308 25-53; P01308 90-110) (ligand)”, the insulin receptor binding relative to that of human insulin in assay [1] came to 44%.
As to “B(1-29)-B29A-VGLSSGQ-A(1-22)-A18Q, A22K(N(eps)hexadecandioyl-gGlu) Human Insulin [Example 4]”, in assay [2], the “insulin receptor binding relative to that of human insulin” value is given as 44%.
Regarding “B(1-29)-B29A-VGLSSGQ-A(1-22)-A18Q, A22K(N(eps)myristoyl) Human Insulin (from UniProt P01308 25-53; P01308 90-110) (ligand)”, the insulin receptor binding relative to that of human insulin in assay [1] stood at 62%.
For “B(1-29)-B29A-VGLSSGQ-A(1-22)-A18Q, A22K(N(eps)myristoyl) Human Insulin [Example 2]”, in assay [2], the “insulin receptor binding relative to that of human insulin” value is on record as 62%.
As for “B(1-29)-B29A-VGLSSGQ-A(1-22)-A18Q, A22K(N(eps)octadecandioyl) Human Insulin (from UniProt P01308 25-53; P01308 90-110) (ligand)”, the insulin receptor binding relative to that of human insulin in assay [1] amounted to 24%.
Turning to “B(1-29)-B29A-VGLSSGQ-A(1-22)-A18Q, A22K(N(eps)octadecandioyl) Human Insulin [Example 5]”, the “insulin receptor binding relative to that of human insulin” value in assay [2] was 24%.
As for “B(1-29)-B29A-VGLSSGQ-A(1-22)-A18Q-A22K((eps)heptadecandioyl-g-Glu) Human Insulin (from UniProt P01308 25-53; P01308 90-110) (ligand)”, the insulin receptor binding relative to that of human insulin in assay [1] is 43%.
In the case of “B(1-29)-B29A-VGLSSGQ-A(1-22)-A18Q-A22K((eps)heptadecandioyl-g-Glu) Human Insulin [Example 10]”, the “insulin receptor binding relative to that of human insulin” value in assay [2] amounted to 43%.
Regarding “B(1-29)-B29H-TGLGSGR-A(1-21)-A18K(N-eps-hexadecandioyl-g-L-Glu)-A21 G Human insulin (from UniProt P01308 25-53; P01308 90-110) (ligand)”, the insulin receptor binding relative to that of human insulin in assay [1] is 45.7%.
On to “B(1-29)-B29H-TGLGSGR-A(1-21)-A18K(N-eps-hexadecandioyl-g-L-Glu)-A21 G Human insulin [Example 7]”, for which the “insulin receptor binding relative to that of human insulin” value in assay [2] is listed as 45.7%.
“B(1-29)-B29Q-TGLGSCR-A(1-22)-A18Q, A21 G-A22K(N (eps)hexadecand ioyl-g-LGlu) Human Insulin (from UniProt P01308 25-53; P01308 90-110) (ligand)”: in assay [1], the insulin receptor binding relative to that of human insulin was found to be 113%.
As for “B(1-29)-B29Q-TGLGSCR-A(1-22)-A18Q, A21 G-A22K(N (eps)hexadecand ioyl-g-LGlu) Human Insulin [Example 8]”, the “insulin receptor binding relative to that of human insulin” value in assay [2] turned out to be 112.8%.
